Here are results for one substance from PMC9834311.

The experiment has as its target E. coli F1Fo ATP synthase subunit b (cysteine-free enzyme) (E. coli) (UniProt P0ABA0). Description: cryo-EM structure; detergent-solubilised (digitonin) cysteine-free E. coli F1Fo ATP synthase (WT at 11 μM, εΔCTH2 mutant at 9 μM) with 10 mM MgATP, pH 8.0, 22 °C, 45 s in all until freezing.

The substance “E. coli F1Fo ATP synthase subunit b (cysteine-free enzyme) (from UniProt P0ABA0 1-156) (natural protein)” showed a stoichiometry N of 2.

Usually stoichiometry N stands for the number of molecules, sites or subunits per partner or assembly.
